Data on five molecules can be found in PMC10663520, “Qa-SNARE syntaxin 18 mediates lipid droplet fusion with SNAP23 and SEC22B” (Cell Discovery, 2023).

The chains are these.
B1: SEC22B (full-length, purified) (natural protein, UniProt O75396 1-215, looked up)
chain: MVLLTMIARVADGLPLAASMQEDEQSGRDLQQYQSQAKQLFRKLNEQSPTRCTLEAGAMTFHYIIEQGVCYLVLCEAAFPKKLAFAYLEDLHSEFDEQHGKKVPTVSRPYSFIEFDTFIQKTKKLYIDSRARRNLGSINTELQDVQRIMVANIEEVLQRGEALSALDSKANNLSSLSKKYRQDAKYLNMRSTYAKLAAVAVFFIMLIVYVRFWWL
notes: SEC22B, full length, in pGEX with N-terminal GST and a TEV site after it; C-terminus printed as 212-FWWL-215; The uncleaved form is called GST-Flag-SEC22B in the pull-down methods; if a FLAG follows the TEV site it would remain here; also called purified SEC22B; source: E. coli BL21 (C43), purified (Glutathione Sepharose 4B, TEV on beads); not shown: GST, N-terminal, cleaved
B2: SNAP23 (full-length, purified) (natural protein, UniProt O00161 1-211, looked up)
chain: MDNLSSEEIQQRAHQITDESLESTRRILGLAIESQDAGIKTITMLDEQKEQLNRIEEGLDQINKDMRETEKTLTELNKCCGLCVCPCNRTKNFESGKAYKTTWGDGGENSPCNVVSKQPGPVTNGQLQQPTTGAASGGYIKRITNDAREDEMEENLTQVGSILGNLKDMALNIGNEIDAQNPQIKRITDKADTNRDRIDIANARAKKLIDS
notes: SNAP23, full length, in pGEX with N-terminal GST and a TEV site after it; The uncleaved form is called GST-Flag-SNAP23 in the pull-down methods; if a FLAG follows the TEV site it would remain here; also called purified SNAP23; source: E. coli BL21 (DE3), purified (Glutathione Sepharose 4B, TEV on beads); not shown: GST, N-terminal, cleaved

Common to all, as to settings: both partners purified
Assay [1] has as its target T1, GST-Flag-STX18 (full-length) (UniProt Q9P2W9 1-335).
T1 construct: syntaxin 18 (STX18), full length, in pGEX-4T-1 with GST-TEV-3xFLAG at the N-terminus; C-terminus printed as 331-DWYDS-335; The methods describe only the TEV-cleaved preparation; also called GST-STX18; GST-Flag-tagged STX18; source: E. coli BL21 (C43), purified (Glutathione Sepharose 4B); not shown: GST, N-terminal, kept; 3xFLAG, N-terminal, kept
T1 sequence (looked up): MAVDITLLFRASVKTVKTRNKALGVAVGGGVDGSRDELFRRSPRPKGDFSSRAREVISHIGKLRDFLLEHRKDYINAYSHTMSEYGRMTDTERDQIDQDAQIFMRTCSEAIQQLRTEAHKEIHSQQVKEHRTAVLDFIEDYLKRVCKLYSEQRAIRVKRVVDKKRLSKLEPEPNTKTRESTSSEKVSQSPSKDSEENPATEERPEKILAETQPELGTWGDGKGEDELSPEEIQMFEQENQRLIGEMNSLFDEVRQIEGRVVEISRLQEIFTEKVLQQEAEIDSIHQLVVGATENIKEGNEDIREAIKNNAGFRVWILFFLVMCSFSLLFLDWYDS
Nature of the assay: pull-down; GST-Flag-tagged bait on GST agarose beads, 4 °C 1 h; 20 mM HEPES pH 7.4, 300 mM NaCl, 1 mM EDTA, 1% OG, 0.1% FOS-Choline-12; purified SEC22B (54.7 μM, 20 μL) or SNAP23 (280 μM, 5 μL) added; immunoblot and Coomassie. Background: Immunoblotting shows a protein as a band on a membrane.

Assay [2] addresses B1. The assay is described as above.
Assay [3] has as its target B2. Nature of the assay: SEC; individually purified SNAP23, STX18-SNARE and SEC22B-SNARE, alone or as an in vitro incubated mixture of the three, on Superdex75 10/300 GL; SDS-PAGE of fractions. Background: SEC sorts molecules by how far they enter the pores of the column.

For the molecule B1, the binding result in assay [1] is “binds”. Same read-out and setting: next, B2: “binds”.

B3: GST-Flag-SNAP23 (natural protein, UniProt O00161 1-211, looked up)
chain: MDNLSSEEIQQRAHQITDESLESTRRILGLAIESQDAGIKTITMLDEQKEQLNRIEEGLDQINKDMRETEKTLTELNKCCGLCVCPCNRTKNFESGKAYKTTWGDGGENSPCNVVSKQPGPVTNGQLQQPTTGAASGGYIKRITNDAREDEMEENLTQVGSILGNLKDMALNIGNEIDAQNPQIKRITDKADTNRDRIDIANARAKKLIDS
notes: SNAP23, full length, in pGEX with N-terminal GST and a TEV site after it; The cloning paragraph names no FLAG tag for this construct; the pull-down methods and legends call it GST-Flag-SNAP23; also called GST-SNAP23; GST-Flag-tagged SNAP23; source: E. coli BL21 (DE3), purified (Glutathione Sepharose 4B); not shown: GST, N-terminal, kept
For B3, the binding result in assay [2] was “binds”.

B4: STX18-SNARE (243-305), individually purified (domain or fragment, UniProt Q9P2W9 243-305, looked up)
chain: IGEMNSLFDEVRQIEGRVVEISRLQEIFTEKVLQQEAEIDSIHQLVVGATENIKEGNEDIREA
notes: syntaxin 18 (STX18), SNARE domain, residues 243-305, in pGEX-4T-1 with GST-TEV-FLAG at the N-terminus; The TEV site lies between GST and FLAG, so the FLAG tag should remain after cleavage (surmised); source: E. coli BL21 (DE3), purified (Glutathione Sepharose 4B, TEV on beads, Superdex 75); not shown: GST, N-terminal, cleaved
B4: in assay [3], the binding result is reported as “binds”.

B5: SEC22B-SNARE (134-194), individually purified (domain or fragment, UniProt O75396 134-194, looked up)
chain: NLGSINTELQDVQRIMVANIEEVLQRGEALSALDSKANNLSSLSKKYRQDAKYLNMRSTYA
notes: SEC22B, SNARE domain, residues 134-194, in pET28 with 6xHis at the N-terminus
With B5, the binding result in assay [3] is “binds”.
